Assay results: IntAct's records for PubMed 18423202

B1: Regulator of nonsense transcripts 1 (Homo sapiens), Q92900-2 (parent)
chain: MSVEAYGPSSQTLTFLDTEEAELLGADTQGSEFEFTDFTLPSQTQTPPGGPGGPGGGGAGGPGGAGAGAAAGQLDAQVGPEGILQNGAVDDSVAKTSQLLAELNFEEDEEDTYYTKDLPIHACSYCGIHDPACVVYCNTSKKWFCNGRGNTSGSHIVNHLVRAKCKEVTLHKDGPLGETVLECYNCGCRNVFLLGFIPAKADSVVVLLCRQPCASQSSLKDINWDSSQWQPLIQDRCFLSWLVKIPSEQEQLRARQITAQQINKLEELWKENPSATLEDLEKPGVDEEPQHVLLRYEDAYQYQNIFGPLVKLEADYDKKLKESQTQDNITVRWDLGLNKKRIAYFTLPKTDSDMRLMQGDEICLRYKGDLAPLWKGIGHVIKVPDNYGDEIAIELRSSVGAPVEVTHNFQVDFVWKSTSFDRMQSALKTFAVDETSVSGYIYHKLLGHEVEDVIIKCQLPKRFTAQGLPDLNHSQVYAVKTVLQRPLSLIQGPPGTGKTVTSATIVYHLARQGNGPVLVCAPSNIAVDQLTEKIHQTGLKVVRLCAKSREAIDSPVSFLALHNQIRNMDSMPELQKLQQLKDETGELSSADEKRYRALKRTAERELLMNADVICCTCVGAGDPRLAKMQFRSILIDESTQATEPECMVPVVLGAKQLILVGDHCQLGPVVMCKKAAKAGLSQSLFERLVVLGIRPIRLQVQYRMHPALSAFPSNIFYEGSLQNGVTAADRVKKGFDFQWPQPDKPMFFYVTQGQEEIASSGTSYLNRTEAANVEKITTKLLKAGAKPDQIGIITPYEGQRSYLVQYMQFSGSLHTKLYQEVEIASVDAFQGREKDFIILSCVRANEHQGIGFLNDPRRLNVALTRARYGVIIVGNPKALSKQPLWNHLLNYYKEQKVLVEGPLNNLRESLMQFSKPRKLVNTINPGARFMTTAMYDAREAIIPGSVYDRSSQGRPSSMYFQTHDQIGMISAGPSHVAAMNIPIPFNLVMPPMPPPGYFGQANGPAAGRGTPKGKTGRGGRQKNRFGLPGPSQTNLPNSQASQDVASQPFSQGALTQGYISMSQPSQMSQPGLSQPELSQDSYLGDEFKSQIDVALSQDSTYQGERAYQHGGVTGLSQY

Variants of: B1
Details: with eif3a_human EIF3A

Row | effect of a mutation on the interaction | Variant
1 | increasing interaction | G495R;G497E

Variants of: B1
Details: with eif3a_human EIF3A
Remark: another data set of the same source

Row | effect of a mutation on the interaction | Variant
2 | increasing interaction | G495R;G497E
